Measured values taken from the supplement of paper PMC5998384.

Key:
HeLa Kyoto [1] = experiment: solubility change mitosis vs G1/S (difference of NP-40 vs SDS log2 ratios) (log2 ratio difference); higher = more soluble in mitosis
HeLa Kyoto [2] = experiment: melting temperature (median over replicates), in situ; higher = more thermally stable
HeLa Kyoto [3] = experiment: solubility in G1/S (NP-40 vs SDS abundance) (log2 ratio); higher = more soluble; conditions: cell cycle stage: G1/S
HeLa Kyoto [4] = experiment: thermal stability score vs G1/S (z-score of summed log2 fold changes over temperatures); higher = more thermally stable than in G1/S
[5] = cell cycle stage: early G1 (4.5 h after nocodazole release)
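Throughout, for melting temperature (median over replicates), in situ: HeLa Kyoto cells synchronized by double thymidine or nocodazole block, proteins quantified by TMT10plex mass spectrometry, three independent biological replicates.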
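Throughout, for solubility change mitosis vs G1/S (difference of NP-40 vs SDS log2 ratios): synchronized HeLa Kyoto cells (double thymidine block for G1/S, nocodazole release for mitosis), protein amounts in NP-40 versus SDS lysates quantified by mass spectrometry, three biological replicates.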
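Throughout, for solubility in G1/S (NP-40 vs SDS abundance): HeLa Kyoto cells arrested at G1/S by double thymidine block, proteins quantified by TMT10plex mass spectrometry in mild NP-40 versus SDS extracts, three biological replicates.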
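Throughout, for thermal stability score vs G1/S (z-score of summed log2 fold changes over temperatures): synchronized HeLa Kyoto cells, proteins quantified by TMT10plex mass spectrometry, three biological replicates, mitosis taken 0.5 h after nocodazole release, G1/S directly after double thymidine block.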

Sequence | solubility change mitosis (log2) (HeLa Kyoto [1]) | melting temperature (HeLa Kyoto [2]; cell cycle stage: G1/S) | melting temperature (HeLa Kyoto [2]; cell cycle stage: mitosis) | solubility in G1/S (log2) (HeLa Kyoto [3]) | thermal stability score (HeLa Kyoto [4]; [5]) | thermal stability score (HeLa Kyoto [4]; cell cycle stage: mitosis)
MQANGAGGGGGGGGGGGGGGGGGGGQGQTPELACLSAQNGESSPSSSSSAGDLAHANGLLPSAPSAASNNSNSLNVNNGVPGGAAAASSATVAAASATTAASSSLATPELGSSLKKKKRLSQSDEDVIRLIGQHLNGLGLNQTVDLLMQESGCRLEHPSATKFRNHVMEGDWDKAENDLNELKPLVHSPHAIVVRGALEISQTLLGIIVRMKFLLLQQKYLEYLEDGKVLEALQVLRCELTPLKYNTERIHVLSGYLMCSHAEDLRAKAEWEGKGTASRSKLLDKLQTYLPPSVMLPPRRLQTLLRQAVELQRDRCLYHNTKLDNNLDSVSLLIDHVCSRRQFPCYTQQILTEHCNEVWFCKFSNDGTKLATGSKDTTVIIWQVDPDTHLLKLLKTLEGHAYGVSYIAWSPDDNYLVACGPDDCSELWLWNVQTGELRTKMSQSHEDSLTSVAWNPDGKRFVTGGQRGQFYQCDLDGNLLDSWEGVRVQCLWCLSDGKTVLASDTHQRIRGYNFEDLTDRNIVQEDHPIMSFTISKNGRLALLNVATQGVHLWDLQDRVLVRKYQGVTQGFYTIHSCFGGHNEDFIASGSEDHKVYIWHKRSELPIAELTGHTRTVNCVSWNPQIPSMMASASDDGTVRIWGPAPFIDHQNIEEECSSMDS [WDR26] | -0.151 | 52.1 °C | 50.7 °C | -0.108 | 0.266 | 0.763
MMEERAAAAVAAAASSCRPLGSGAGPGPTGAAPVSAPAPGPGPAGKGGGGGGSPGPTAGPEPLSLPGILHFIQHEWARFEAEKARWEAERAELQAQVAFLQGERKGQENLKTDLVRRIKMLEYALKQERAKYHKLKFGTDLNQGEKKADVSEQVSNGPVESVTLENSPLVWKEGRQLLRQYLEEVGYTDTILDMRSKRVRSLLGRSLELNGAVEPSEGAPRAPPGPAGLSGGESLLVKQIEEQIKRNAAGKDGKERLGGSVLGQIPFLQNCEDEDSDEDDELDSVQHKKQRVKLPSKALVPEMEDEDEEDDSEDAINEFDFLGSGEDGEGAPDPRRCTVDGSPHELESRRVKLQGILADLRDVDGLPPKVTGPPPGTPQPRPHEDVFIMDTIGGGEVSLGDLADLTVTNDNDLSCDLSDSKDAFKKTWNPKFTLRSHYDGIRSLAFHHSQSALLTASEDGTLKLWNLQKAVTAKKNAALDVEPIHAFRAHRGPVLAVAMGSNSEYCYSGGADACIHSWKIPDLSMDPYDGYDPSVLSHVLEGHGDAVWGLAFSPTSQRLASCSADGTVRIWDPSSSSPACLCTFPTASEHGVPTSVAFTSTEPAHIVASFRSGDTVLYDMEVGSALLTLESRGSSGPTQINQVVSHPNQPLTITAHDDRGIRFLDNRTGKPVHSMVAHLDAVTCLAVDPNGAFLMSGSHDCSLRLWSLDNKTCVQEITAHRKKHEEAIHAVACHPSKALIASAGADALAKVFV [STRN4] | -0.085 | 50.6 °C | 50.4 °C | 0.104 | 0.143 | 0.0318
MESYHKPDQQKLQALKDTANRLRISSIQATTAAGSGHPTSCCSAAEIMAVLFFHTMRYKSQDPRNPHNDRFVLSKGHAAPILYAVWAEAGFLAEAELLNLRKISSDLDGHPVPKQAFTDVATGSLGQGLGAACGMAYTGKYFDKASYRVYCLLGDGELSEGSVWEAMAFASIYKLDNLVAILDINRLGQSDPAPLQHQMDIYQKRCEAFGWHAIIVDGHSVEELCKAFGQAKHQPTAIIAKTFKGRGITGVEDKESWHGKPLPKNMAEQIIQEIYSQIQSKKKILATPPQEDAPSVDIANIRMPSLPSYKVGDKIATRKAYGQALAKLGHASDRIIALDGDTKNSTFSEIFKKEHPDRFIECYIAEQNMVSIAVGCATRNRTVPFCSTFAAFFTRAFDQIRMAAISESNINLCGSHCGVSIGEDGPSQMALEDLAMFRSVPTSTVFYPSDGVATEKAVELAANTKGICFIRTSRPENAIIYNNNEDFQVGQAKVVLKSKDDQVTVIGAGVTLHEALAAAELLKKEKINIRVLDPFTIKPLDRKLILDSARATKGRILTVEDHYYEGGIGEAVSSAVVGEPGITVTHLAVNRVPRSGKPAELLKMFGIDRDAIAQAVRGLITKA [TKT] | -0.0914 | 61.8 °C | 60.1 °C | 0.148 | -3.36 | -2.81
